In the supplement of paper PMC10126150:
± gives the standard deviation of the averaged measurements.

The sequences below were run on ATP (assay: switch fluorescence ratio, 500 uM ATP over buffer (Cy3 cluster intensity, sum of 5 cycles each) (fold (ratio)); higher = stronger signal-on switching upon ATP binding; sequences stand for … in TCGTCGGCAGCGTCAGATGTGTATAAGAGACAGTTTTTTTTTTTTTTTTTTTTTTTTT…TC). Details: aptamer strand: ATP DNA aptamer (quencher-CACCTGGGGGAGTATTGCGGAGGAAGG + anchor), 100 nM annealed; ATP concentration: 500 uM.
Summary of the method: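 Imaging in selection buffer was followed by imaging after 15 min with 500 uM ATP at 22 °C, for Cy3-labelled switching-strand clusters annealed to 100 nM quencher-labelled ATP aptamer on a modified Illumina MiSeq flow-cell. Five of these buffer/ATP cycles ran, separated by NaOH stripping and re-annealing. The fluorescence ratio per cluster is summed target-cycle over summed buffer-cycle Cy3 intensity, averaged per switch-domain sequence; clusters outside 100-1000 RFU were removed.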
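Note: ATP exposure 15 min at 22 °C before imaging.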

Row | Sequence | switch fluorescence ratio
1 | CCGGGGGCTC | 1.87 ± 0.97
2 | ATCTTAATG | 1.01 ± 0.05
3 | CAGCATAAAG | 1.02 ± 0.057
4 | TGAAGGCTTA | 0.994 ± 0.024
5 | GGATATATGG | 1 ± 0.025
6 | GGGACGGCTC | 0.993 ± 0.049
7 | AAGATCACTT | 0.979 ± 0.041
8 | TTTTAATACC | 1 ± 0.023
9 | AAGTGTCGTG | 0.959 ± 0.024
10 | TGGGTGAGTT | 1.02 ± 0.019
11 | TGTGTAAAGG | 1.04 ± 0.042
12 | ATATAAAACG | 0.983 ± 0.018
13 | TCCTGAATGA | 1 ± 0.03
14 | CATTAACGGG | 1.02 ± 0.013
15 | TAATTAGTGT | 0.979 ± 0.013
16 | CGCACCTGAG | 1.23 ± 0.044
17 | CGTCGTATAA | 1.02 ± 0.021
18 | TATGGATTAT | 1.02 ± 0.081
19 | AGAGGAGGGA | 0.9737 ± 0.0047
20 | ATGTGTTCGG | 0.98 ± 0.0064
21 | GCGGGGAATT | 1.02 ± 0.026
22 | CTATGGCGCA | 1.03 ± 0.067
23 | GGGTGAGAGG | 0.9944 ± 0.0075
24 | GGTATTTTTA | 0.9758 ± 0.0046
25 | AGAACCGTGT | 0.989 ± 0.041

Row | Sequence | switch fluorescence ratio
26 | ATACGGGAGC | 1.01 ± 0.048
27 | GAGGGGAAGA | 0.998 ± 0.031
28 | GATATTATTC | 1.05 ± 0.079
29 | TGGTATGTGA | 1.01 ± 0.032
30 | TTTGAATTAC | 1.17 ± 0.062
31 | GTTTTGGAGG | 0.9691 ± 0.0043
32 | GCCGGTTATC | 1 ± 0.017
33 | TGAGGCGGGG | 0.9642 ± 0.0059
34 | CAACATCACG | 1.52 ± 0.057
35 | ATATTTCAGG | 0.999 ± 0.027
36 | TTGGAGGGCG | 1.03 ± 0.017
37 | TCGCGGGCTA | 1.04 ± 0.046
38 | AGGGTGCCGT | 0.988 ± 0.08
39 | GGGGGGACTG | 1.06 ± 0.077
40 | TGATTAGTCG | 1.01 ± 0.023
41 | AGGTTTGCGT | 1.01 ± 0.021
42 | GATGCAGTGT | 1.05 ± 0.014
43 | TGGTTCCAAA | 0.971 ± 0.008
44 | GGCGCCGGAA | 0.98 ± 0.031
45 | TTGCTTCTAG | 0.979 ± 0.043
46 | TCTGGTTAGC | 1.03 ± 0.026
47 | TGAGGGGCGC | 0.988 ± 0.028
48 | GGTGTTGTCT | 1.031 ± 0.0061
49 | TAGTTTTTAG | 0.981 ± 0.018
50 | TCAGTGCCAG | 0.992 ± 0.022

Row | Sequence | switch fluorescence ratio
51 | ACAGGTCATT | 1.01 ± 0.034
52 | TGTGTGGGTT | 1.01 ± 0.035
53 | AATGGGTTCA | 1.021 ± 0.0062
54 | TTTGGGAAGC | 1.02 ± 0.033
55 | ATAGGGGCTT | 0.9989 ± 0.0085
56 | GGTCAAACCA | 1.03 ± 0.0097
57 | CGATAGGCAA | 1.66 ± 0.9
58 | CCAAGCGTGC | 1.76 ± 0.64
59 | AAAAATTATT | 1.006 ± 0.0065
60 | CGGGCTAACA | 0.972 ± 0.017
61 | AATGCATCTG | 0.973 ± 0.013
62 | CGTGTTGGTA | 0.987 ± 0.013
63 | CGCGTTCATT | 0.972 ± 0.038
64 | CGTGTACTTA | 1.03 ± 0.01
65 | GGGGTCAGCG | 0.974 ± 0.012
66 | TTTGTTTCGT | 1.03 ± 0.11
67 | TTCGAAAAAT | 1.05 ± 0.064
68 | AAATGTTTCA | 0.996 ± 0.022
69 | TTATAGTTTC | 1.03 ± 0.057
70 | CAAGGAGATG | 1.01 ± 0.046
71 | TTCTGGTGTG | 0.9703 ± 0.0072
72 | GCGCCTTGTG | 0.988 ± 0.018
73 | GGTGGTTGTT | 1.01 ± 0.043
74 | GAGAAAATGG | 1.003 ± 0.0039
75 | GGTATTGCTT | 0.995 ± 0.0021

Row | Sequence | switch fluorescence ratio
76 | ACGAGGTAAG | 1.079 ± 0.0031
77 | GGCCCCTTTT | 1.021 ± 0.0053
78 | TATAAGGATG | 0.993 ± 0.019
79 | GTATTTGGAG | 1.0226 ± 0.00041
80 | TCGTTATTGT | 1.01 ± 0.021
81 | AGGGCCAAGT | 0.997 ± 0.011
82 | AAGGTTAGGT | 1.03 ± 0.041
83 | CGTTAATCTT | 0.995 ± 0.049
84 | TGTTTGTGTA | 1.03 ± 0.022
85 | CGCGACGGGG | 1.03 ± 0.029
86 | GCATGTGGGC | 0.967 ± 0.01
87 | GGTAAGACGT | 0.999 ± 0.038
88 | CATTGGGCGA | 0.982 ± 0.022
89 | TGTACTTCTT | 1.24 ± 0.3
90 | GGGAAGACTT | 1.02 ± 0.087
91 | TAGCCGATGG | 0.994 ± 0.027
92 | CAAGCAAGAT | 2.58 ± 0.24
93 | TTTGAAGGGT | 1.0199 ± 0.00081
94 | AGGGGTGCGC | 0.9894 ± 0.0055
95 | AGGGGTGCGG | 1.04 ± 0.08
96 | GACTGTCGG | 1.002 ± 0.0068
97 | AGAGGGTACG | 1.06 ± 0.017
98 | GGGGGGAGAT | 1.04 ± 0.077
99 | TATGAGGTCT | 1.02 ± 0.032
100 | ATTGAGGGTT | 0.985 ± 0.019

Row | Sequence | switch fluorescence ratio
101 | ATAATATTGT | 0.999 ± 0.0022
102 | TGAGTTTCCA | 0.958 ± 0.011
103 | AGGCTGCAGT | 1.013 ± 0.007
104 | CGGCTTAATA | 1.02 ± 0.019
105 | ACGGGTACGC | 1.01 ± 0.021
106 | AAAACCGTGT | 1.05 ± 0.04
107 | AACCTTGGGG | 1.11 ± 0.079
108 | TAAGGGGGCG | 1 ± 0.023
109 | GCAGGCACGG | 0.976 ± 0.028
110 | GGTTAAAACT | 0.987 ± 0.048
111 | CAGCTAAAGG | 1.02 ± 0.03
112 | CAATACTTAT | 1.01 ± 0.019
113 | TTTGCCCTTT | 1.24 ± 0.32
114 | TTTGGAACAT | 1.01 ± 0.042
115 | TTTGATCCTG | 0.9711 ± 0.0081
116 | AGAAATTTGG | 1.01 ± 0.02
117 | GGTTCATGAT | 0.993 ± 0.024
118 | GTCACACTT | 1.01 ± 0.0073
119 | TGAAGCTGGG | 1.07 ± 0.12
120 | AAGGCCTATA | 0.998 ± 0.0088
121 | TGATAAGTG | 0.9877 ± 0.0016
122 | TAGTTAAATC | 1 ± 0.042
123 | TTAACACTCC | 1.2 ± 0.02
124 | ATAGCCGGGT | 1.04 ± 0.088
125 | GAAGCGGATG | 1.01 ± 0.031

Row | Sequence | switch fluorescence ratio
126 | TAATTTCTTG | 1.013 ± 0.0018
127 | ATAATCTGGT | 0.9965 ± 0.0049
128 | TAATGCTTTT | 0.978 ± 0.03
129 | ACAAGCTGAC | 1.27 ± 0.15
130 | GTACCCTGGA | 1.03 ± 0.03
131 | ACGGTGTTGG | 1.02 ± 0.021
132 | CTTAATTTTT | 0.98 ± 0.032
133 | CAGTTTTGGG | 0.9713 ± 0.0016
134 | CGAGTCCTGT | 1 ± 0.02
135 | CTGTCCATCC | 1.11 ± 0.035
136 | AGGGGGTATC | 0.988 ± 0.023
137 | ATTAGGGAAT | 0.976 ± 0.04
138 | TCTGTCTGAG | 0.988 ± 0.027
139 | CGGGAACTCT | 1.013 ± 0.0054
140 | GAAGTTTGTG | 1.019 ± 0.0075
141 | GAAAGGATTA | 0.995 ± 0.063
142 | TATTTTGGTG | 0.984 ± 0.033
143 | GGACTACCGC | 1.14 ± 0.019
144 | GGTTTGGTTT | 1 ± 0.021
145 | ACAGGAAGGG | 1 ± 0.01
146 | GGGCCATATT | 0.963 ± 0.044
147 | ACGTCTGAGG | 1.02 ± 0.029
148 | ATGGATGACA | 0.951 ± 0.052
149 | TATTAGATTC | 0.9656 ± 0.0023
150 | TTTTAGGTAC | 1.021 ± 0.0019

Row | Sequence | switch fluorescence ratio
151 | GGTGCGATGC | 1.7 ± 0.081
152 | AGTTGGCTTT | 1.018 ± 0.008
153 | TAAGTCAGCT | 1 ± 0.032
154 | TGAGGTTAAC | 0.957 ± 0.023
155 | GATACTGTAG | 1.09 ± 0.049
156 | GTAGAATGTG | 0.983 ± 0.03
157 | TAATTTTCCG | 1.02 ± 0.043
158 | TTCTGGAACT | 1.03 ± 0.015
159 | AAGAGCAGGG | 0.975 ± 0.011
160 | TTTTTAGCAT | 1.04 ± 0.084
161 | GGCGTAGCTT | 1.01 ± 0.051
162 | AGGCGAGGGA | 1.02 ± 0.0049
163 | ATTGGTTTAA | 0.9981 ± 0.002
164 | TTTTTTCCGA | 1.02 ± 0.046
165 | ATACTGTTAC | 1.359 ± 0.0057
166 | TGGACTAGGG | 0.975 ± 0.049
167 | GTTGCGGGGT | 1.02 ± 0.029
168 | ATCATTTGTT | 0.991 ± 0.017
169 | GGGAAGGTTA | 0.993 ± 0.017
170 | GCCGGGGGTT | 1.2 ± 0.21
171 | AAGGGGTTAT | 1.02 ± 0.05
172 | AGTATGATTT | 0.98 ± 0.027
173 | CAGCTGGCGC | 0.9949 ± 0.0083
174 | TGATCAGGGG | 1.03 ± 0.021
175 | TGTAAAGGAA | 0.992 ± 0.024

Row | Sequence | switch fluorescence ratio
176 | GAAAGCGCGT | 0.965 ± 0.028
177 | TAGAGATTTT | 1 ± 0.046
178 | AAAGACCGTG | 1.02 ± 0.033
179 | ACAGTCAAGG | 1.02 ± 0.035
180 | TGAGAGGATC | 1.018 ± 0.0025
181 | TAAAATGTTA | 0.985 ± 0.0063
182 | AAGTGATGCT | 1.03 ± 0.087
183 | TCAATATTGG | 1.008 ± 0.0098
184 | TTATGACAAC | 1.015 ± 0.0044
185 | CGGCTAGGGT | 0.998 ± 0.021
186 | ACTTGCACTC | 1.34 ± 0.057
187 | GGCAAAGGAC | 1.08 ± 0.027
188 | GCATGCAGGA | 1.01 ± 0.02
189 | AGGATCGTCA | 0.9893 ± 0.0038
190 | TTTGTTGGGG | 1.02 ± 0.011
191 | TTTTTCGGTA | 1.05 ± 0.038
192 | AACTGTCAGA | 0.9903 ± 0.0036
193 | TTCCCGGTGT | 1.75 ± 0.041
194 | TTTTAGTATA | 1.02 ± 0.045
195 | GCATGCGCGC | 0.984 ± 0.012
196 | GCAGATGATC | 1.027 ± 0.0014
197 | TCAGTTTGGT | 0.99 ± 0.017
198 | TAGTGAAGGC | 0.988 ± 0.013
199 | TTTCAGAGTT | 0.993 ± 0.033
200 | AGATTATGGG | 0.974 ± 0.033
